This series in a line: protein stability index of a GFP-peptide fusion (GPS, HEK-293T) (PSI 1-6); higher = more stable.
Where [1] appears, read: treatment: DMSO, c terminus: a fixed tail appended.
Where [2] appears, read: treatment: MLN4924 1 uM, 8 h, c terminus: a fixed tail appended.
Setting [3] is: treatment: DMSO, c terminus: native.
The mark [4] stands for this setting: treatment: MLN4924 1 uM, 8 h, c terminus: native.

The results in this text go back to the supplement of paper PMC10567573.

± gives the standard deviation.
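Also: 24-mer peptide tiles fused after GFP, lentivirally expressed, FACS-sorted into six equal bins by GFP/DsRed ratio, decoded by Illumina sequencing, PSI is the read-weighted mean bin number.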

Regarding AAAEFSSLLRRIKGKLFTWNILKT [SLC35F2], the protein stability index under setting [1] is 3.05 ± 0.56 and the protein stability index under setting [2] worked out at 2.94 ± 0.28.
The like results for AAAGAVGLERRDWSPSPPATPEQG [SPDEF] were, in that order, 5.09 ± 0.26 and 5.18 ± 0.17.
As to AADVWSLGVALFTMLAGHYPFQDS [TRIB3], the protein stability index is, setting by setting: under setting [1], 2.96 ± 0.098; under setting [2], 2.94 ± 0.2.
For AAKMYHQLKKCETRKLSPGKKRCK [SMG5], in that order: 3.92 ± 0.35 and 4.07 ± 0.37.
For AANVVSAKRNRLAPAHVDEQVFLY [ZBED1], the protein stability index runs as follows: under setting [1], 2.55 ± 0.12; under setting [2], 2.47 ± 0.27.
AASLAGCLGALCENTCLLRGFSGG [TSPAN10] had a protein stability index under setting [1] of 2.22 ± 0.57 and a protein stability index under setting [2] of 2.37 ± 0.58.
As for ADFGSATFDHEHHTTIVATRHYRP [CLK3], the protein stability index worked out at 3.79 ± 0.21 under setting [1] and 3.92 ± 0.29 under setting [2].
In the case of ADGQRHHSKLLVSGFWGVARHFNY [DHCR7], the protein stability index is, setting by setting: under setting [1], 2.27 ± 0.43; under setting [2], 2.14 ± 0.27.
Consider ADIPQDQLVVMHPTPQVDELDILP [BTBD10], for which the protein stability index runs as follows: under setting [1], 5.11 ± 0.17; under setting [2], 5.24 ± 0.15.
In the case of ADSEQADIARMLYKDTCHELDELQ [ZMYND11], the protein stability index under setting [1] was 5.14 ± 0.24 and the protein stability index under setting [2] came out at 4.99 ± 0.2.
For ADSFESSDSLLQSWNSQSSLLDVQ [ETS2], the protein stability index by setting is: under setting [1], 4.38 ± 0.12; under setting [2], 4.56 ± 0.12.
As for AEKKREAKQRAKEAQERELRKREK [LRRC59], the protein stability index is, setting by setting: under setting [1], 5.38 ± 0.12; under setting [2], 5.33 ± 0.11.
As to AEKLKVQALKDRGLSIPRADTLDE [LSM1], the protein stability index runs as follows: under setting [1], 4.93 ± 0.3; under setting [2], 4.98 ± 0.22.
For AEVSVISEADPQALLQAMKDLDGM [FBF1], in that order: 4.52 ± 0.19 and 4.36 ± 0.2.
As to AFADIIHSLKESGQLWLDAYLHQ [FADS1], the protein stability index was 2.7 ± 0.78 under setting [3] and 2.49 ± 0.58 under setting [4].
With AFVSNSPKLFCPKNRSFDIDAIYS [PLD5], the protein stability index reads like this: under setting [1], 2.15 ± 0.8; under setting [2], 2.51 ± 0.69.
For AGCCQVFDALDDYEHHYHTLHGNV [ZNF511], the protein stability index runs as follows: under setting [1], 2.84 ± 0.35; under setting [2], 2.88 ± 0.23.
Take AGDVIFLLSRINKDWLEGTVRGAT [NCF4]: the protein stability index is, setting by setting: under setting [1], 3.21 ± 0.31; under setting [2], 3.2 ± 0.4.
Take AGGSARRPDTGDDAAGHGFCYCAG [GMCL1]: the protein stability index is, setting by setting: under setting [1], 4.11 ± 0.46; under setting [2], 4.13 ± 0.19.
For AGKALVISGREVFEFRPELVNDDD [ZC3H15], the protein stability index is, setting by setting: under setting [1], 4.21 ± 0.57; under setting [2], 4.23 ± 0.35.
As for AGRNVLRWDLSPEQIKTRTEELIV [NLN], the protein stability index is, setting by setting: under setting [1], 2.52 ± 0.34; under setting [2], 3.23 ± 0.47.
For the sequence AGRPRAERRPRRVEAERPHSLIGV [FAM189A2], the protein stability index reads like this: under setting [1], 4.05 ± 0.15; under setting [2], 3.94 ± 0.21.
As to AGTPGYLSPEVLRKDPYGKPVDMW [CAMK2D], the protein stability index reads like this: under setting [1], 3.34 ± 0.5; under setting [2], 3.25 ± 0.42.
In the case of AIRRRNVRGEDSGRKPERRRLKTT [DAPK3], the protein stability index amounted to 4.644 ± 0.043 under setting [1] and 4.69 ± 0.9 under setting [2].
The like results for AKARDLYKGRQLQGCPGAKKHEFL [SMOC2] were, in that order, 3.03 ± 0.3 and 3.2 ± 0.34.
Regarding AKGKVQAELSQPLTAGGAISELL [RBBP5], the protein stability index under setting [3] was determined as 4.18 ± 0.3 and the protein stability index under setting [4] is 3.91 ± 0.34.
Turning to AKLALFYDWLFFSPDKDSIMNIEP [INTS3], the protein stability index was 2.04 ± 0.34 under setting [1] and 1.9 ± 0.43 under setting [2].
For AKMLLHEGQHPAQLRSDVCTPGGT [PYCR3], the protein stability index turned out to be 4.29 ± 0.5 under setting [1] and 4.58 ± 0.9 under setting [2].
Regarding AKNLQEAEEWYKSKYADLSDAANR [PRPH], the protein stability index by setting is: under setting [1], 4.43 ± 0.18; under setting [2], 4.48 ± 0.22.
For AKVKLVFVEDQAVVETVFFLTSRT [ZSWIM9], in that order: 3.31 ± 0.38 and 3.01 ± 0.5.
With ALATRALPCPAHVVFRYQGVRMS [FCHSD1], the protein stability index was 3.1 ± 0.67 under setting [3] and 2.58 ± 0.84 under setting [4].
Regarding ALLDSLPPPVESELALFQMSVLWL [KLHL14], the protein stability index runs as follows: under setting [1], 2.45 ± 0.23; under setting [2], 2.03 ± 0.19.
As for ALSTMGTLICRKLGGVKKSATLRS [TPD52L3], the protein stability index stood at 2.6 ± 0.2 under setting [1] and 2.67 ± 0.31 under setting [2].
With AMFRLEHGEADRSTLKKALPTLSH [YJU2B], the protein stability index was 3.33 ± 0.16 under setting [1] and 3.38 ± 0.17 under setting [2].
AMPDPTVPDSDIKALTTLCDLADR [ESRRG] displayed a protein stability index under setting [1] of 5.11 ± 0.28 and a protein stability index under setting [2] of 5.15 ± 0.16.
The like results for ANAFQQEAQTSGKERLLLSAAVPA [CHIT1] were, in that order, 4.03 ± 0.33 and 4.18 ± 0.28.
For ANQLIDIISSDELNVRSEEQVFNA [KLHL20], in that order: 4.42 ± 0.21 and 4.34 ± 0.25.
The like results for ANSDRASIGRRRTELRRSGSSRSP [PLEKHN1] were, in that order, 4.79 ± 0.3 and 5.2 ± 0.21.
For the sequence ANTIRGGGCYFGPDVTQQLLQKYN [PPEF2], the protein stability index runs as follows: under setting [1], 2.44 ± 0.35; under setting [2], 2.59 ± 0.41.
APLGYKEPERQVQHEESTEGEADH [UFD1] returned a protein stability index under setting [1] of 5.55 ± 0.22 and a protein stability index under setting [2] of 5.5 ± 0.3.
Consider APLVQPSKNDNGKPDSVGLPPCAV [PCMTD1], for which the protein stability index is 5.09 ± 0.15 under setting [1] and 5.07 ± 0.22 under setting [2].
Consider APNAWQVIKGVLFRIFIIWAISSW [CLPTM1], for which the protein stability index reads like this: under setting [1], 2.94 ± 0.19; under setting [2], 2.89 ± 0.53.
In the case of AQDSIELLTTSGIQFKKHEEEGIE [CNOT7], the protein stability index is, setting by setting: under setting [1], 5.46 ± 0.24; under setting [2], 5.48 ± 0.34.
AQPNYIPTQQDVLRTRVKTTGIVE [GNAI1]: the protein stability index runs as follows: under setting [1], 4.19 ± 0.23; under setting [2], 4.27 ± 0.36.
On to AQRSAHCSRPSGSSSSSGVLMVGP [CSNK1G1], for which the protein stability index by setting is: under setting [1], 3.65 ± 0.24; under setting [2], 3.84 ± 0.14.
As for AQTTSEAAMEGATLDQTTSEEAPG [HDAC6], the protein stability index runs as follows: under setting [1], 5.64 ± 0.28; under setting [2], 5.54 ± 0.24.
For the sequence ARDRQPSDFKTDKEGGQAGSGQRV [ELOA2], the protein stability index by setting is: under setting [1], 5.26 ± 0.33; under setting [2], 5.26 ± 0.26.
In turn, AREVKLLLLGAGESGKSTIVKQMK [GNAI1] gave a protein stability index under setting [1] of 2.73 ± 0.25 and a protein stability index under setting [2] of 2.62 ± 0.26.
In the case of ARGRHVGSSETNLLQHLLEACGRC [PYCR3], the protein stability index under setting [1] was 2.71 ± 0.88 and the protein stability index under setting [2] amounted to 3.17 ± 1.4.
For ARLMLESEYRSDIINAKSNDGWTP [ASB7], the protein stability index reads like this: under setting [1], 2.65 ± 0.28; under setting [2], 3.15 ± 0.15.
Take ARNNNDPGRLTEALCLEVRPTYFE [RNF180]: the protein stability index is, setting by setting: under setting [1], 4.97 ± 0.23; under setting [2], 4.96 ± 0.18.
The like results for ARRESGGRPIKPPKKDLEDGEVPQ [BRD3] were, in that order, 5.58 ± 0.21 and 5.38 ± 0.32.
The like results for ASEEGSESEGSESSGRSCRNERSI [SMG5] were, in that order, 5.54 ± 0.3 and 5.45 ± 0.31.
With ASEYCPGKLSWGTMARALGRFKLS [WDR88], the protein stability index reads like this: under setting [1], 2.49 ± 0.42; under setting [2], 2.67 ± 0.29.
ASRTSTIFLNGNRERPLNVFCDME [TNXB]: the protein stability index is, setting by setting: under setting [1], 3.09 ± 0.42; under setting [2], 3.07 ± 0.34.
Take ASSPSIRQKKLMHKLQEEKAFREE [CCDC70]: the protein stability index by setting is: under setting [1], 4.24 ± 0.17; under setting [2], 4.66 ± 0.14.
For the sequence ATFVDKKRDLLGALKYWKKAMNMR [FEM1C], the protein stability index is, setting by setting: under setting [1], 1.95 ± 0.17; under setting [2], 2.13 ± 0.46.
As for ATGFHFNAMTCEGCKGFFRRSMKR [VDR], the protein stability index by setting is: under setting [1], 2.63 ± 0.18; under setting [2], 2.9 ± 0.21.
For the sequence ATTISTSEDGSYGTDVTRCICGFT [KMT2E], the protein stability index is, setting by setting: under setting [1], 3.46 ± 0.21; under setting [2], 3.6 ± 0.39.
AVEGLTEAEEEELRAELTKVEEEI [TPD52L2]: the protein stability index reads like this: under setting [1], 5.6 ± 0.25; under setting [2], 5.54 ± 0.12.
The like results for AYDWVGRPIPTPVGSVHVDSGASA [CSNK1G1] were, in that order, 3.94 ± 0.29 and 4.08 ± 0.16.
On to AYDYAKEVNSAEELEGLIADPDEM [FEM1C], for which the protein stability index reads like this: under setting [1], 5.68 ± 0.13; under setting [2], 5.51 ± 0.56.
In the case of CALGDHGCEHSCVSSEDSFVCQCF [MATN2], the protein stability index was 4.25 ± 0.35 under setting [1] and 4.33 ± 0.3 under setting [2].
CEERWLVIDRKVYNISEFTRRHPG [FADS1]: the protein stability index came out at 2.1 ± 0.3 under setting [1] and 2.15 ± 0.33 under setting [2].
As for CEGKPYNQKSDIWALGCVLYELAS [NEK8], the protein stability index runs as follows: under setting [1], 3.08 ± 0.74; under setting [2], 2.88 ± 0.72.
For CFGLQPGCLLPDGSRMMAVAALVV [NLN], in that order: 2.47 ± 0.23 and 2.75 ± 0.34.
As for CHICHKKLYTGPGLAIHCMQVHKE [ZNF207], the protein stability index by setting is: under setting [1], 3.07 ± 0.27; under setting [2], 3.25 ± 0.39.
The like results for CHPVERGIKSKEAEEYRLKEHYLT [PSD2] were, in that order, 4.21 ± 0.093 and 4.1 ± 0.2.
Turning to CKKLSLELGGKNPAIIFEDANLDE [ALDH8A1], the protein stability index came to 4.4 ± 0.11 under setting [1] and 4.32 ± 0.26 under setting [2].
As to CLRDDVVFFIYLYQRWIYRVDPTR [CLPTM1], the protein stability index was found to be 2.77 ± 0.35 under setting [1] and 2.81 ± 0.48 under setting [2].
Turning to CLSCRLFYFKLTDLYKKVKKNSSP [CRY1], the protein stability index by setting is: under setting [1], 2.42 ± 0.11; under setting [2], 2.08 ± 0.44.
As for CPEGLEELLSAPPPDLGAQRRHGW [SPSB2], the protein stability index runs as follows: under setting [1], 3.8 ± 0.34; under setting [2], 3.83 ± 0.25.
